From publication PMC9505750 come the findings set out here.

Common to all, as to settings: remark: other sources report otherwise
The target in assay [1] is full-length wild-type APOBEC3G (human), Q9HC16. Briefly: SEC-SAXS; A3Gfl 2.5 mg/mL with the 40-mer ssDNA CCdZ-T30-oligo at a 1 to 2 molar ratio; SEC-SAXS, 25 °C, 50 mM phosphate pH 6.0, 200 mM NaCl, 2 mM β-ME, 5% glycerol, 200 µM Na2-EDTA; Gaussian decomposition. (In general: In gel filtration, larger molecules generally elute earlier.)
The target is the same in assay [2]. Briefly: SEC-SAXS; ligand-free A3Gfl; SEC (Superdex 200 Increase 5/150 GL) with co-flow SAXS, 25 °C, 2.5 mg/mL A3Gfl loaded (about 1.3 mg/mL after SEC), 50 mM phosphate pH 6.0, 200 mM NaCl, 2 mM β-ME, 5% glycerol, 200 µM Na2-EDTA; species separated by SVD/EFA and Gaussian decomposition.
Assay [3] has the same target. The description is as above. The source holds these as a separate data set.

B1: full-length wild-type APOBEC3G, Q9HC16 1-384 (enzyme)
chain: MKPHFRNTVERMYRDTFSYNFYNRPILSRRNTVWLCYEVKTKGPSRPPLDAKIFRGQVYSELKYHPEMRFFHWFSKWRKLHRDQEYEVTWYISWSPCTKCTRDMATFLAEDPKVTLTIFVARLYYFWDPDYQEALRSLCQKRDGPRATMKIMNYDEFQHCWSKFVYSQRELFEPWNNLPKYYILLHIMLGEILRHSMDPPTFTFNFNNEPWVRGRHETYLCYEVERMHNDTWVLLNQRRGFLCNQAPHKHGFLEGRHAELCFLDVIPFWKLDLDQDYRVTCFTSWSPCFSCAQEMAKFISKNKHVSLCIFTARIYDDQGRCQEGLRTLAEAGAKISIMTYSEFKHCWDTFVDHQGCPFQPWDGLDEHSQDLSGRLRAILQNQEN
As for B1, the values for the stoichiometry N in assay [1], in assay [2] and in assay [3] were 4, 4 and 2, respectively.

What is called stoichiometry N is a count of units in the complex or per binding partner.
